Laboratory results reported in the nanobody polyreactivity screen of Harvey et al. (2022).

Assay: yeast display, Sf9 membrane polyspecificity reagent, FACS + sequencing; frameworks hold sequencing errors
Outline: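 Synthetic nanobody libraries on Saccharomyces cerevisiae BJ5465 were galactose-induced for 36–48 hours, stained 1 hour at 4 °C with 10% biotinylated, detergent-solubilized Sf9 membrane reagent and enriched on streptavidin microbeads. FACS then separated cells into low and high (top ~1%) gates by anti-HA (expression) and streptavidin (reagent binding) fluorescence. Genes were colony-PCR amplified, MiSeq 2 × 250 sequenced and CDR-length filtered. A clone's polyreactivity label is that of its gate of origin.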

| Sequence | polyreactivity (PSR sort gate) |
| --- | --- |
| QVQLVESGGGLVQAGGSLRLSCAASGIIFARYAMGWYRQAPGKERELVASINWTGGNTYADSVKGRFTISRDNAKNTVYLQMNSLKPEDTAVYYCARDFCPGSSDPKASISFDHWGQGTQVTVSS | low polyreactivity |
| QVQLVESGGGLVQAGGSLRLSCAASGIIFAWNTMGWSRHPPGKERELVAAISSSGGSTYYADSVKGRFTISRDNAKNTVYLQMNSLKPEDTAVYYCAADGYHWIHEYDYWGQGTQVTVSS | low polyreactivity |
| QVQLVESGGGLVQAGGSLRLSCAASGIIFAWYAMGWYRQAPGKERELVAAINWSGGSTYYADSVKGRFTISRDYAKNTVYLQMNSLKPEDTAVYYCARSSRGKLDYWGQGTQVTVSS | low polyreactivity |
| QVQLVESGGGLVQAGGSLRLSCAASGIIFAWYAMGWYRQAPGKERELVAGISQSGGRTYYADSVKGRFTISRDNAKNSVYLQMNSLKPEDTAVYYCAAQWYYSPYVSGDYWGQGTQVTVSS | high polyreactivity |
| QVQLVESGGGLVQAGGSLRLSCAASGIIFAYAMGWYRQAPAKEREMVAAISGRDGSTYYADSVKGRFTISRDNAKNTVYLQMNSLKPDDTAVYYCAKRFSDLPVEMDYWGQGTQVTVSS | low polyreactivity |
| QVQLVESGGGLVQAGGSLRLSCAASGIIFDDYAMGWYRQAPGKERELVAAISVSGGSTYYADSVKGRFTISRDNAKNTVYLQMNSLKPEDTAVYYCAARLRQPYTRGNYWGQGTQVTVSS | high polyreactivity |
| QVQLVESGGGLVQAGGSLRLSCAASGIIFDEYAMGWYRQAPGKERELVAVIDWSGGSTYYADSVKGRFTISRDNAKNTFFLQMNSLKPEDTAVYYCAAEDDSTTPEFDYWGQGTQVTVSS | low polyreactivity |
| QVQLVESGGGLVQAGGSLRLSCAASGIIFDHNAMGWYRQAPGKERELVAAISTGGGNTYYADSVKGRFTISRDNAKNTVYLQMNSLKPEDTAVYYCATEPGYSYLTSYKYVYWGQGTQVTVSS | low polyreactivity |
| QVQLVESGGGLVQAGGSLRLSCAASGIIFDRYAMGWYRQAPGKEREFVAAISRRGGSTYYADSVKGRFTISRDNAKNTVYLQMNSLKPEDTAVYYCAKEIRYSSSVSESDYWGQGTQVTVSS | high polyreactivity |
| QVQLVESGGGLVQAGGSLRLSCAASGIIFDRYAMGWYRQAPGKERELVAAITYGGGSTYYADSVKGRFTISRDNAKNTVYLQMNSLKPEDTAVYYCAAVPRSGMYYWGQGTQVTVSS | high polyreactivity |
| QVQLVESGGGLVQAGGSLRLSCAASGIIFDSNAMGWYRQAPGKERELVAAITRTATRTYYADSVKGRFTISRDQAQNTVYLQMNSLKPEDTAFYYCADRGSTPQPGVGYWGQGTQVTVSS | high polyreactivity |
| QVQLVESGGGLVQAGGSLRLSCAASGIIFDSYAMGLYRQAPGKERELVAAITSRGGRTYYADSVKRRFTISRENAKNTVYLQMNSLKPEDTAVYYCAARAIYDRRTEGTSGYDYWGPGTQVTVSS | low polyreactivity |
| QVQLVESGGGLVQAGGSLRLSCAASGIIFDTNAMGWYRQAPGKERELVASISKRGGSTYYADSVKGRFTISRDNAKNTVYLQMNSLKPEDTAVYYCNALRRRQYHDDYWGQGTQVTVSS | high polyreactivity |
| QVQLVESGGGLVQAGGSLRLSCAASGIIFDTYTMGWTRHSPGKERELVAAITRRGSRTYYADSVKGRFTISRDNAKNTVYLQMNSLKREDTAVYYCNAVPRWSYVDEDSWGQGTQVTVSS | high polyreactivity |
| QVQLVESGGGLVQAGGSLRLSCAASGIIFDVYAMGWYIQAPGKERELVAAISSGGSTYYADSVKGRFTISRDNAKNTVYLQMNSLKPEDTAVYYCATAQSVIYRYEYWGQGTQVTVSS | low polyreactivity |
| QVQLVESGGGLVQAGGSLRLSCAASGIIFDYNAMGWYRPAPGKERELVAAISGRSGRTYYADSVKGRFTISRDNAKNTVYLQMNSLKPEDTAVYYCAARWYAGGNYWGQGTQVTVSS | high polyreactivity |

| Sequence | polyreactivity (PSR sort gate) |
| --- | --- |
| QVQLVESGGGLVQAGGSLRLSCAASGIIFDYNAMGWYRQAPGKERELVAAISGRSGRTYYADSVKGRFTISRDNAKNTVYLQMNSLKPEDTAVYYCNALRLTRDPYDYWGQGTQVTVSS | high polyreactivity |
| QVQLVESGGGLVQAGGSLRLSCAASGIIFDYNAMGWYRQAPGKERELVAAITSTDNTNYADSVKGRFTISRDNAKNTVYLQMNSLKPEDTAVYYCNTDYWLSVVYAMDYWGQGTQVTVSS | low polyreactivity |
| QVQLVESGGGLVQAGGSLRLSCAASGIIFDYNAMGWYRQAPGKERELVASIDSGGSTNYADSVKGRFTISRDNAKNTVYLQMNSLKPEDTAVYYSNADDTTVSPWYYYYQSYYWGQGTQVTVSS | low polyreactivity |
| QVQLVESGGGLVQAGGSLRLSCAASGIIFDYNAMGWYRQAPGKERELVDSIDSGCSTNYADSVKGSFTISRDNAKNTVYLQMNSLKPEDTAVYYCNADDTTVSPWYYYYQSYYWGQGTQVTVSS | low polyreactivity |
| QVQLVESGGGLVQAGGSLRLSCAASGIIFDYYAMGWYRQAPGKERELVATITGNSTNTYYADSVKGRFTISRDNAKNTVYLQMNSLKPEDTAVYYCATAQTRWWPSIAGYDYWGQGTQVTVSS | high polyreactivity |
| QVQLVESGGGLVQAGGSLRLSCAASGIIFDYYDMGWYRQAPGKERELVAAISAGGGSTYYADSVKGRFTISRDNAKNTVYLQMNSLKPEDTAVYYCAALYWRSTVGAYSTYEYDYWGQGTQVTVSS | high polyreactivity |
| QVQLVESGGGLVQAGGSLRLSCAASGIIFEGYAMGWYRQAPGKERELVAGITIGDITYYADSVKGRFTISRDNAKNTVYLQMNSLKPEDTAVYYCAADSYYYQTAYDSWGQGTQVTVSS | low polyreactivity |
| QVQLVESGGGLVQAGGSLRLSCAASGIIFESNAMGWYRQAPGKERELVAAITGRGGRTYYADSVKGRFTISRDNAKNTVYLQTNSLKPEDTAVYYCAADGLRLVPGYKYDYWGQGTQVTVSS | high polyreactivity |
| QVQLVESGGGLVQAGGSLRLSCAASGIIFESYAMGCYRQAPGKERELVAAISSRGGSTYYADSVKGRFTISRDNSKNTVYLQMNSLKPEDTAVYYCAADVAAGVSSYPTKYSYDYWGQGTQVTVSS | low polyreactivity |
| QVQLVESGGGLVQAGGSLRLSCAASGIIFEYYAKGWYRQAPGKERELVAAITSDGSTNYADSVKGRFTISRDNEKNTVYLQMNRLKPEDTAVYYCNADLKANIQGVLSTGDDYWGQGTQVTVSS | low polyreactivity |
| QVQLVESGGGLVQAGGSLRLSCAASGIIFEYYAMVWYRQAPGKDRELVAAISRSSVSTYYADSVKGRFTISRDNAKNTVYLQMNSLKPEDTAVYYCAARQGYGYYKYGKYYYWGQGTQVTVSS | high polyreactivity |
| QVQLVESGGGLVQAGGSLRLSCAASGIIFFIYAMGWYRQAPGKERELVATISWTGGSTYYADSVKGRFTISRDNAKNTVYLQMNSLKPEDTAVYYCNADEWRWDEIIPYAVDYWGQGTQVTVSS | low polyreactivity |
| QVQLVESGGGLVQAGGSLRLSCAASGIIFFSNAMGWYRQAPGKERELVAAIDDSDGVTYYADSVKGRFTISRDNAKNTVYLQMNSLKPEDTAVYYCAAVDGWTYTGSDYWGDGTQVTVSS | low polyreactivity |
| QVQLVESGGGLVQAGGSLRLSCAASGIIFGFYAMGWYREAPGKERELVADITNDGGNTNYADSVKGRFTISRDNAKNTVYLQMNSLKPEDTAVYYCNADRTQVRNRYTYATFDYWGQGTQVTVSS | low polyreactivity |
| QVQLVESGGGLVQAGGSLRLSCAASGIIFGGYAMGWYRQAPGKERELVASISYSGGSTYYADSVKGRFTISRDNAKNTVYLQMNSLKPEDTAVYYCAAGYPRTPAAGYYWGQGTQVTVSS | high polyreactivity |
